Target: Macrobrachium rosenbergii nodavirus (MrNV) capsid protein, recombinant, assembled into virus-like particles (Macrobrachium rosenbergii nodavirus)
Experiment: cryo-EM structure; MrNV VLPs at approximately 0.2 mg/ml, vitrified on thin continuous carbon films; Titan Krios; icosahedral reconstruction at 3.3 Å from 40,883 particles; atomic model of the asymmetric unit

Work on “Macrobrachium rosenbergii nodavirus (MrNV) capsid protein, recombinant, assembled into virus-like particles (natural protein)” yielded a stoichiometry N of 180.

— paper PMC6211762
